Laboratory results reported in patent US20160220651A1 (UNIVERSITY OF PITTSBURGH OF THE COMMONWEALTH SYSTEM OF …, published 2016).

B1: NG2 770-778 peptide TLSNLSFPV (peptide)
peptide: TLSNLSFPV
notes: Synthetic peptide (Fmoc), >96% pure
B2: DLK1 310-318 peptide ILGVLTSLV (peptide)
peptide: ILGVLTSLV
notes: as for B1
B3: HBB 31-39 peptide RLLVVYPWT (peptide)
peptide: RLLVVYPWT
notes: as for B1
B4: PDGFRβ 890-898 peptide ILLWEIFTL (peptide)
peptide: ILLWEIFTL
notes: Synthetic peptide (Fmoc), >96% pure; also called PDGFRβ (891)
B5: NRP2 436-444 peptide NMLGMLSGL (peptide)
peptide: NMLGMLSGL
notes: as for B1
B6: HBB 105-114 peptide RLLGNVLVCV (peptide)
peptide: RLLGNVLVCV
notes: as for B1
B7: EphA2 883-891 peptide TLADFDPRV (peptide)
peptide: TLADFDPRV
notes: as for B1
B8: NG2 2238-2246 peptide LILPLLFYL (peptide)
peptide: LILPLLFYL
notes: as for B1
B9: NRP1 869-877 peptide VLLGAVCGV (peptide)
peptide: VLLGAVCGV
notes: as for B1
B10: NRP2 214-222 peptide DIWDGIPHV (peptide)
peptide: DIWDGIPHV
notes: as for B1
B11: NRP1 331-339 peptide GLLRFVTAV (peptide)
peptide: GLLRFVTAV
notes: as for B1
B12: RGS5 5-13 peptide LAALPHSCL (peptide)
peptide: LAALPHSCL
notes: as for B1
B13: NRP2 328-336 peptide YLQVDLRFL (peptide)
peptide: YLQVDLRFL
notes: as for B1
B14: DLK1 269-277 peptide RLTPGVHEL (peptide)
peptide: RLTPGVHEL
notes: as for B1
B15: TEM1 691-700 peptide LLVPTCVFLV (peptide)
peptide: LLVPTCVFLV
notes: as for B1
B16: NRP1 433-441 peptide GMLGMVSGL (peptide)
peptide: GMLGMVSGL
notes: as for B1
B17: DLK1 326-334 peptide FLNKCETWV (peptide)
peptide: FLNKCETWV
notes: as for B1
B18: VEGFR1 770-778 peptide TLFWLLLTL (peptide)
peptide: TLFWLLLTL
notes: as for B1
B19: VEGFR2 773-781 peptide VIAMFFWLL (peptide)
peptide: VIAMFFWLL
notes: as for B1

Biological target: T1, HLA-A2 complexes expressed by T2 cells (human)
T1 construct: whole, on cells; also called HLA-A2.1 class I molecule
Experiment: T2 class I stabilization assay, flow cytometry

Binder | binding result
B1 | binds
B2 | binds
B3 | binds
B4 | binds
B5 | binds
B6 | binds
B7 | binds
B8 | binds
B9 | binds
B10 | binds
B11 | binds
B12 | binds
B13 | binds
B14 | binds
B15 | binds
B16 | binds
B17 | binds
B18 | binds
B19 | binds
